We go through 1 molecule from US7211419B2, “Mutant carbamoylphosphate synthetase and method for producing compounds derived from carbamoylphosphate” (priority 2001, dated 2007).

For this experiment, the system named is carbamoylphosphate synthetase (CPSase). Nature of the experiment: CPSase activity in reaction of carbamoylphosphate (CP) synthesis from glutamine or ammonia, protein extracts, CP by capillary zone electrophoresis. The class given is biochemical, E. coli. On the procedure:
Then, the protein extracts from these 9 clones B-6969(pEL-carAB-NN) and one clone B-6969(pEL-carAB-6) were used to evaluate the activity and fbr of mutant CPSases in reaction of carbamoylphosphate (CP) synthesis from glutamine or ammonia.
The crude cellular extracts from cells were prepared by sonication of 20 mg wet cells pellet suspended in 0.5 ml of buffer A (200 mM K2HPO4/KH2PO4, pH 8.0, 1 mM EDTA, 1 mM PMSF, 1 mM DTT) and treated with solid ammonium sulfate to achieve 65% of saturation. After incubation for 10 min at 4° C., the suspensions were centrifuged at 13,000 rpm for 10 min and the precipitates were dissolved in 1 ml of buffer B (20 mM K2HPO4/KH2PO4, pH 8.0, 50 mM KCl, 1 mM PMSF, 1 mM DTT). The aliquots of obtained protein extracts were used to evaluate the CPSase activity. The schemes of reaction were following: Gln+CO2+2MgATP+H2O→NH2COOPO3^2−+2MgADP+Glu+P1 I. NH3+CO2+[…]+H2O→NH2COOPO3^2−+2MgADP+P1 II.
The 50 μl of each reaction mixture included:
reaction I—20 mM tris-HCl, pH 8.0, 100 mM KCl, 5 mM Na2CO3, 10 mM ATP, 10 mM MgCl2, 5 mM glutamine, 10 μl of protein extract;
reaction II—20 mM tris-HCl, pH 8.0, 100 mM KCl, 5 mM Na2CO3, 10 mM ATP, 10 mM MgCl2, 200mM (NH4)2SO4, 10 μl of protein extract. […]
After incubation for 10 min at 37° C. reactions were stopped by addition of equal volume of EtOH, cooled at −20° C. for 10 min and centrifuged at 13,000 rpm for 1 min at room temperature. Supernatants were cooled at −20° C.
The CP content in reaction mixtures was analyzed by capillary zone electrophoresis. The separation was performed on a Quanta 4000E Capillary Electrophoresis System (“Waters”, USA) with UV indirect detection at 254 nm. The injection was performed by hydrostatic for 25 s. The separation was carried out with an uncoated fused-silica capillary (75 u I.D.* 60cm, effective length 53 cm) and was operated at −25 kV potential. Temperature was maintained at 20° C. The separation buffer consisted of 50 mM Tris base, 25mM benzoic acid (for indirect detection), pH 8.5, 0.25mM TTAB (tetradecyl-trimethyl-ammonium bromide) (for reversion of electroosmotic flow).

B1: clone Wt: wild type E. coli CPSase; CarB 947-951 -Leu-Ser-Val-Arg-Glu- (SEQ ID NO: 28) (protein, UniProt P0A6F1 1-382; P00968 2-1073, looked up)
Carbamoyl phosphate synthase … 1: MIKSALLVLEDGTQFHGRAIGATGSAVGEVVFNTSMTGYQEILTDPSYSRQIVTLTYPHIGNVGTNDADEESSQVHAQGLVIRDLPLIASNFRNTEDLSSYLKRHNIVAIADIDTRKLTRLLREKGAQNGCIIAGDNPDAALALEKARAFPGLNGMDLAKEVTTAEAYSWTQGSWTLTGGLPEAKKEDELPFHVVAYDFGAKRNILRMLVDRGCRLTIVPAQTSAEDVLKMNPDGIFLSNGPGDPAPCDYAITAIQKFLETDIPVFGICLGHQLLALASGAKTVKMKFGHHGGNHPVKDVEKNVVMITAQNHGFAVDEATLPANLRVTHKSLFDGTLQGIHRTDKPAFSFQGHPEASPGPHDAAPLFDHFIELIEQYRKTAK
Carbamoyl phosphate synthase … 2: PKRTDIKSILILGAGPIVIGQACEFDYSGAQACKALREEGYRVILVNSNPATIMTDPEMADATYIEPIHWEVVRKIIEKERPDAVLPTMGGQTALNCALELERQGVLEEFGVTMIGATADAIDKAEDRRRFDVAMKKIGLETARSGIAHTMEEALAVAADVGFPCIIRPSFTMGGSGGGIAYNREEFEEICARGLDLSPTKELLIDESLIGWKEYEMEVVRDKNDNCIIVCSIENFDAMGIHTGDSITVAPAQTLTDKEYQIMRNASMAVLREIGVETGGSNVQFAVNPKNGRLIVIEMNPRVSRSSALASKATGFPIAKVAAKLAVGYTLDELMNDITGGRTPASFEPSIDYVVTKIPRFNFEKFAGANDRLTTQMKSVGEVMAIGRTQQESLQKALRGLEVGATGFDPKVSLDDPEALTKIRRELKDAGADRIWYIADAFRAGLSVDGVFNLTNIDRWFLVQIEELVRLEEKVAEVGITGLNADFLRQLKRKGFADARLAKLAGVREAEIRKLRDQYDLHPVYKRVDTCAAEFATDTAYMYSTYEEECEANPSTDREKIMVLGGGPNRIGQGIEFDYCCVHASLALREDGYETIMVNCNPETVSTDYDTSDRLYFEPVTLEDVLEIVRIEKPKGVIVQYGGQTPLKLARALEAAGVPVIGTSPDAIDRAEDRERFQHAVERLKLKQPANATVTAIEMAVEKAKEIGYPLVVRPSYVLGGRAMEIVYDEADLRRYFQTAVSVSNDAPVLLDHFLDDAVEVDVDAICDGEMVLIGGIMEHIEQAGVHSGDSACSLPAYTLSQEIQDVMRQQVQKLAFELQVRGLMNVQFAVKNNEVYLIEVNPRAARTVPFVSKATGVPLAKVAARVMAGKSLAEQGVTKEVIPPYYSVKEVVLPFNKFPGVDPLLGPEMRSTGEVMGVGRTFAEAFAKAQLGSNSTMKKHGRALLSVREGDKERVVDLAAKLLKQGFELDATHGTAIVLGEAGINPRLVNKVHEGRPHIQDRIKNGEYTYIINTTSGRRAIEDSRVIRRSALQYKVHYDTTLNGGFATAMALNADATEKVISVQEMHAQIK
In the case of B1, the “Activity, (CP)” value (Substrate: 5 mM Gln) turned out to be 1350 nmol/mg/min; the “Activity, (CP)” value (Substrate: 5 mM Gln, Allosteric effector: 10 mM UMP) is 170 nmol/mg/min; the “Activity, (CP)” value (Substrate: 200 mM (NH4)2SO4) was determined as 425 nmol/mg/min.
